Laboratory results published in the supplement of paper PMC12042874.
± gives the uncertainty stated by the source.

Experiment: amyloid nucleation score (Sup35N fusion, yeast selection) (log enrichment); library NNK1; higher = more nucleation; inactive = no reads after selection
Summary of the method: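 Psi-negative yeast expressed Sup35N fused to peptides of 20 random codons. They were induced 24 hours with 100 μM copper sulfate, grown 7 days at 30°C without adenine and uracil, and their plasmid inserts from input and output were Illumina-sequenced. The nucleation score is the DiMSum log enrichment of output over input reads, centred on the mode score of non-aggregating sequences. Sequences with under 100 input reads were excluded.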

| Substance | amyloid nucleation score |
| --- | --- |
| YLWADTRCLTGVW | 0.413 ± 1.1 |
| YLWLVWEDV | 0.721 ± 0.69 |
| YLWMFCYMYREVAIRVNVGG | 0.1 ± 0.34 |
| YMEGAGRYWRGQRKLPPCIA | -0.414 ± 0.67 |
| YMGPVV | -0.313 ± 0.33 |
| YMSWASLRKHFIFVV | -0.282 ± 1.2 |
| YMWFMNRSILIIAELFVVFT | -0.287 ± 0.48 |
| YNGGCACMEAVMRFGGFFTL | -0.066 ± 0.28 |
| YNKGIRRSDQGLKWTFLWPE | -0.712 ± 0.53 |
| YNLGQVFSWINDTTSMMCGK | 0.567 ± 0.32 |
| YNMREVLSCKF | -0.114 ± 0.59 |
| YNMVYQCLIRCVAILFNLGR | -0.321 ± 0.65 |
| YNVQVLQVGGRLCRNKCSSC | 7.825 ± 0.061 |
| YNYICTDSWILSTMVDFVHL | -0.442 ± 0.92 |
| YPDNMWYLCMLCRGWMCETR | -0.644 ± 0.62 |
| YPGNSGSIY | -0.266 ± 0.91 |
| YPLVFRIMDVVSPPPHWVLF | -0.219 ± 1.2 |
| YPMRTQRVASHMV | -0.383 ± 0.58 |
| YPNVRSTYGDHSLLSNVAKG | 0.132 ± 0.66 |
| YPSVLRINTTFASDLTG | 0.894 ± 0.3 |
| YPTSCVYMCQQAKPFLVLIL | -0.655 ± 0.6 |
| YPYRV | -1.12 ± 1.2 |

| Substance | amyloid nucleation score |
| --- | --- |
| YQNFPVKLITQKCLCWIDRC | 0.216 ± 0.31 |
| YRCAYFL | -0.25 ± 0.69 |
| YRCGECNSSVMCMGLRCLWM | 5.87 ± 0.059 |
| YRDSGDRNLGIAPI | 0.449 ± 0.97 |
| YRFWEI | -0.25 ± 0.35 |
| YRGIEAFCAGTNWTSPKWSR | -0.169 ± 0.3 |
| YRGTLDNKMGFYIGYHHDRS | -0.322 ± 0.56 |
| YRHPVMTWEPSRDLSFVLCL | 0.388 ± 0.84 |
| YRIHKIIKEPAEVTSLLRW | -0.813 ± 0.52 |
| YRIKGVNWALPLCLALLSLR | 0.068 ± 0.61 |
| YRIPLARMWMVTLPL | -0.317 ± 0.8 |
| YRMSRLFTVVGAPVGSSLNF | -1.58 ± 2.4 |
| YRPIDFLIPYSSVML | inactive |
| YRPLVTPALSLTLNRFKVDV | 0.187 ± 0.35 |
| YRTVSDTVAY | 1.42 ± 0.79 |
| YRVVLAECTSGYWEDIYSHI | 1.75 ± 0.16 |
| YRVVYRKNVDCTMYQFMSRR | 0.539 ± 0.31 |
| YSARMLIRLSLLGFLPVSAP | 0.711 ± 0.55 |
| YSCFDRAPRFETSVESCDMS | 0.093 ± 0.87 |
| YSCGSIPYIRLVLKLIGYVI | -0.016 ± 0.39 |
| YSCPNLIWA | -0.424 ± 0.38 |
| YSGCRTPDTVSVVTSTHAEY | inactive |

| Substance | amyloid nucleation score |
| --- | --- |
| YSIFREW | -0.817 ± 0.53 |
| YSINTCCQLVIIDPGSSYEM | 6.634 ± 0.047 |
| YSIYRINFPVIALHFTGHCV | -0.902 ± 0.9 |
| YSKWSISTFECMWAKNWRGD | 1.66 ± 0.39 |
| YSLVDTTLVILS | 0.226 ± 0.36 |
| YSNWSCLYCSKSL | 7.552 ± 0.053 |
| YSRIARLDVKRVGHEPDVRL | -0.921 ± 2.4 |
| YSVINWFMVAYYRADRLVNG | -0.144 ± 1.2 |
| YSVWVYRLMRYELNVTFCR | 0.093 ± 0.2 |
| YSYFSPDFRRSQHQGGVCPA | 0.329 ± 0.53 |
| YSYSGVRMVVILNWHGKWWC | 4.87 ± 0.096 |
| YSYSVAV | 0.38 ± 0.51 |
| YTCSVGDVMINDSETSSKAG | 0.053 ± 0.24 |
| YTEETYKLCVWMSDRSIRLN | 0.001 ± 0.85 |
| YTFNVVCILTTEYWGNGWLY | 2.91 ± 0.16 |
| YTHDIRSVGGLQESGLGVWV | -0.094 ± 1.1 |
| YTQSWQ | -0.309 ± 0.51 |
| YVCKIYFHDFDRNMGILEDH | 1.13 ± 0.85 |
| YVDSSI | -0.08 ± 0.97 |
| YVDVSSS | 0.834 ± 0.61 |
| YVFFCIHTVGTPLGNCSIDV | inactive |
| YVIHLPKCTKLWMWANCFLW | -0.215 ± 0.62 |

| Substance | amyloid nucleation score |
| --- | --- |
| YVLIVNWIRSK | 4.42 ± 0.075 |
| YVRGSGMAPGD | inactive |
| YVRVRSIDVLQQKRSLFVRD | 0.595 ± 0.97 |
| YVTMYVRMPGRFTTTHMWLI | -0.962 ± 0.63 |
| YVVFMYFAF | 5.9 ± 0.068 |
| YVWAAIGVRLYSRHK | -0.002 ± 1.4 |
| YVWKMIHVYGMTLSDFTFKV | 5.19 ± 0.053 |
| YVYLYGGSSQFVWYGLFSFA | 2.65 ± 0.14 |
| YWAKGNCYVAFRLKWRYNCG | 1.69 ± 0.64 |
| YWCRSSLFRFMGLRYESRMY | 0.359 ± 0.51 |
| YWLGLNMCVFSHPGCGLREI | 6.64 ± 0.047 |
| YWNKITRFFCMLESNVTLHT | 0.207 ± 1.4 |
| YWSLYSPFYAIHSVILTICQ | 0.496 ± 0.18 |
| YWSQTRFYSMALSRSDSERT | 0.135 ± 0.27 |
| YWSVQG | 0.647 ± 0.75 |
| YWVCE | 0.332 ± 0.9 |
| YWWKMLERQTRS | 0.374 ± 0.9 |
| YYETLLNKDILDMWEYR | -0.393 ± 0.55 |
| YYGFWICFNYVGTGVKISCA | 3.38 ± 0.075 |
| YYIMYYAGSFIRGEMVHRLT | -0.581 ± 0.32 |
| YYKCMATQVVGLLMSVWATY | 1.06 ± 0.85 |
